Measurements: the DeepSol protein solubility set

Assay: soluble on expression in E. coli; label from the status in PepcDB or PDB records

| Sequence | soluble on expression in E. coli |
| --- | --- |
| MGSDKIHHHHHHMVAMQSYPYVITVSSEKGGVGKTTLATNLAIYLKALDENLPVSIFSFDNHFTVDRMFEIRGQRTTGTVADLLLETPGRDLIHTGQYGVGYIPSSPNLSDLKGTVKTPMMLARLLALSRIPGVVVIDTRPDLDILTQNALFAADRAIIPVKDMPSLENCRNIFALFEQRGLDRKSLSLIPCLVDERIKFDGPFSDQKTLLKAYAINRGYRCFETYISKSPKVESLNTNPDGKIYPILTHAKWTEVHGQFAQLAQTIITEFRATAEPRAFLFHQWLQSEEVRKKEAFFARLSGIKSECLLCGRPVSGKDSDRVSFYFEVSDGSAAGFFEEECFFRLLMTNVYNLDINLADDDPTLQIMRDAARESAFVFRPVTNGSGTTVDFHRFGLDGVHLLKKAYPLREFEGGMLTREKSRLFSLLSETFGNRLDASPDSFLLVHPVHQEKPEAILQEECYRGFARLRQRIAQQVLPPN | not soluble |
| MTHTLQATNPLDQTAWHAWHFSRNKEAISRTGATSLSATEWISATTLKDAHTFPSLPGRWYKRGGGVVGAHLPPAFATTGTVQLRPGELLIAEDFTLTVIERLGQFALQVFDARNPKRFEFHSIAAFPPSEEWRIEARFFPEPDTVNTAAADGVIVATPTAGWVHFLKGRLDYRLRVTVQKNNLRALFSDNSSTLGVYQHRFVDIPRPDAEGNTIIDFNRAYLPPKALNRKFLCPSPSLNNHLNLTVEAGEKWVVAGGLEHHHHHH | soluble |
| MIKLDMTMLDSFKEDPNLRKLLFSGHFGLEKENIRVTSDGKLALTPHPAIFGPKEDNPYIKTDFSESQIEMITPVTDSIDSVYEWLENLHNIVSLRSENELLWPSSNPPILPAEEDIPIAEYKTPDSPDRKYREHLAKGYGKKIQLLSGIHYNFSFPEALIDGLYANISLPEESKQDFKNRLYLKVAKYFMKNRWLLIYLTGASPVYLADFSKTKHEESLPDGSSALRDGISLRNSNAGYKNKEALFVDYNSFDAYISSISNYIEAGKIESMREFYNPIRLKNAHTDQTVESLAEHGVEYLEIRSIDLNPLEPNGISKDELDFIHLFLIKGLLSEDRELCANNQQLADENENNIALNGLAQPSIKNCDNEDIPLADAGLLELDKMSDFIKSLRPEDTKLRAIIEKQKERLLHPEKTIAAQVKQQVTKEGYVDFHLNQAKTYMEETEALAYKLIGAEDMELSTQIIWKDAIARGIKVDVLDRAENFLRFQKGDHIEYVKQASKTSKDNYVSVLMMENKVVTKLVLAEHDIRVPFGDSFSDQALALEAFSLFEDKQIVVKPKSTNYGWGISIFKNKFTLEDYQEALNIAFSYDSSVIIEEFIPGDEFRFLVINDKVEAVLKRVPANVTGDGIHTVRELVEEKNTDPLRGTDHLKPLEKIRTGPEETLMLSMQNLSWDSIPKAEEIIYLRENSNVSTGGDSIDYTEEMDDYFKEIAIRATQVLDAKICGVDIIVPRETIDRDKHAIIELNFNPAMHMHCFPYQGEQKKIGDKILDFLFD | soluble |
| MGSDKIHHHHHHMKFYEDGNIPEIPNMYFIYGDGGTGKTSLLKQLKGHKFVFSFDMSSNVLIGDKDVDVVIFEHNDAPNIQAMVEECIIRAIQNAKYQVIVLDNVTALQNLVLENIDNAAKDNRQNYQKLQLWFRDLGTILKESGKTIYATAHQLDNGSSGISGEGRFQADMNEKTFNAFTSMFDLVGRIYLAAGERMIDLDPEKGNHAKNRLDDRKLIKANELIQSEKGEK | not soluble |
| MKTIEIFDPAMCCPTGLCGTNINPELMRIAVVIETLKRQGVVVTRHNLRDEPQVYVSNKTVNQYLQKNGAEALPITLVDGEIAVSKDYPTTKQMSEWTGINLD | soluble |
| MGSDKIHHHHHHMNYEGKTKIVKVTGDYALLEFKDDITAGDGLKHDVLTGKGSICAETTAILMKYLSEKGIKTHLVEYIPPRTLKVIPLKMFPLEVVVRLKKAGSFVRRYGGAEGEDLPVPLVEFFIKDDERHDPMVCVDHLEILGIATKKQAEKMKEAAVKITLALKEFFERANFELWDIKYEFGLDKDGNVVLGDEISPDTFRLRKKGEIFDKDVYRRDLGDPLKKYREVLELCRSLNSQ | not soluble |
| MSLTELYIHNGRDVSGAPVAVLITDGVIAEVGTELTVPVGCPTLDAQGCYITAGWIDDHTHCNAHAALYYDDADAIGYRTGVTTVIDAGSTGADNVADLYQQAHRAATNVYALLNIARTGIVAQDELADLNQLSFSALRTAIKRYPDFIVGLKVRVSKSVVGDNGVEPLRVAKQYQADLTVQLPLMVHIGSNPPELAAIIALMRPGDVLTHCFNGKPNGIVNSTGEVAQYVRKAYQKGLIFDVGHGTDSFSFRTAALARTAHLFPQTLSSDIYYRNRLNGPVYSLAVCVEKLLLLGYRLEEIIPMITTNPARIFKLTHKGQLCRGYDADLTIFQTVTAPQIVVDSTGEERIAPTQVIPTYSVIAGRVYTCGVDKEGHHHHHH | soluble |
| MHRDSCPLDCKVYVGNLGNNGNKTELERAFGYYGPLRSVWVARNPPGFAFVEFEDPRDAADAVRELDGRTLCGCRVRVELSNGEKRSRNRGPPPSWGRRPRDDYRRRSPPPRRRSPRRRSFSRSRSRSLSRDRRRERSLSRERNHKPSRSFSRSRSRSRSNERK | soluble |
| MAHHHHHHMKLNIAYPRNGTVKQFEISDEVLRRVQLQDYRLGNEVDGAIFGSEFKGYIFRLRGGSDKDGFPMVPGVLASSRVSLLVKRGAIGFNTFRGYQGERRRKNVRGCVLASDIALVNVTISKVGDQPIEGVTDTTAPRRLGP | not soluble |
| MFRQLSELYISTLKEAKERSPPNFDDTPRGLLLALIKDRPTIWNSSARLTKDDVLASFQQCSAILSNMDPGYSIWAVIEKWCWVVESYVRCSVTAPPSEWRYNNTLDYLKQFATTSYPYLGCLSKKRRNELTKLYNDPEINVVMQKTEEIEFPVGIFRDEMLYLSGEDHLMQYDLELRTVGQVVNAKRRGRPSKVDKRSPVDNFYNLTPQSAQFQKLLESNMSSAFSIAFAESELIPDDLGFSPAMYMALIDMIQDKPELWQSNHPQKDNLQAQEQLFEDFGKQLIIKFRDTADISVLEKLTGPYVHLVWERLLEKFKEEDSLETVSKWKYYQVGSAGLSARLAIASPSGSSQSEDSRMAASSPSTAFIGMPTTINGNKSIQTVLDNLIAARSKKEDHAASTTSVLQAPNYSELKQMLEKNNILKVDNENGPPLKRVKQEIESPPGSSRMIVYNDTRKTTNAPISTWVPPREDLTAKVKDETVQSVPQRKAQATAVIKSGFPLEKHLKKQAVPSMIPVTSSSIPQRNGILGLNSMILPPSAIQQALLKKMDVPTTTPSMSSTSSSQAQSSMNGVINGNNTEVEDKWTLLGRMIAMMAREIETRDPMSACELTRDLQQVIFQYNMKTLRPKENNSSSSSQ | not soluble |
| MNNNDIEYNAPSEIKYIDVVNTYDLEEEASKVVPHGGFNYIAGASGDEWTKRANDRAWKHKLLYPRLAQDVEAPDTSTEILGHKIKAPFIMAPIAAHGLAHTTKEAGTARAVSEFGTIMSISAYSGATFEEISEGLNGGPRWFQIYMAKDDQQNRDILDEAKSDGATAIILTADSTVSGNRDRDVKNKFVYPFGMPIVQRYLRGTAEGMSLNNIYGASKQKISPRDIEEIAGHSGLPVFVKGIQHPEDADMAIKRGASGIWVSNHGARQLYEAPGSFDTLPAIAERVNKRVPIVFDSGVRRGEHVAKALASGADVVALGRPVLFGLALGGWQGAYSVLDYFQKDLTRVMQLTGSQNVEDLKGLDLFDNPYGYEY | soluble |
| MYAVTFDLDTNCLNENAVNLSKVYSDIRKFMEQHGFKWQQGSVYFGDETINAVTCVATVQILAKQIPSFAVCVKDVRMLKIEENNDLMPAIKIVL | not soluble |
| MQPTPSEYARTPVRIEMQRSKERNSMVYKEMYNDAQRKYSEALDRISKLTDAYLREKAEVENFIKIKDREVEMSKKNANEKLLKDFLPVLDSIDAAIQAEKDNNLIRIRDQMLGVLSRYGLKPIKAEGSKFDPYLHEVVGVTADGEDGMVKYEVQRGYTLNDGVLRTSKVIVVKR | not soluble |
| MKVDGKHTRTIWLEADGWTVGTIDQRRLPHDYVVVKLTSSDDAADAIRTMLVRGAPLIGATAAYGMALAMREDASDAGLDAAYAKLVATRPTAINLKWALDEMRRALAPVQPADRVAAAYRRAGEIADEDVAINQAIGASGLKLIEAIAATKKPGERVNVLTHCNAGWLATVDWGTATAPIYQAFDAGIPIHVYADETRPRNQGASLTAWELGHHGVDHTVIPDNTGGHLMQHGLVDIVIVGTDRVTADGDVCNKIGTYLKALAAADNKVPFYVALPSPTIDFTIHDGVREIPIEQREAAEVTDMTGRTNDGRIETVRIVPQGSKVANYGFDVTPARLVTGLITERGVLKADRAALAAAFPERVAQAKELLRASAAALEHHHHHH | soluble |
| MSTFRLALIQLQVSSIKSDNLTRACSLVREAAKQGANIVSLPECFNSPYGTTYFPDYAEKIPGESTQKLSEVAKESSIYLIGGSIPEEDAGKLYNTCSVFGPDGSLLVKHRKIHLFDIDVPGKITFQESKTLSPGDSFSTFDTPYCKVGLGICYDMRFAELAQIYAQRGCQLLVYPGAFNLTTGPAHWELLQRARAVDNQVYVATASPARDDKASYVAWGHSTVVDPWGQVLTKAGTEETILYSDIDLKKLAEIRQQIPILKQKRADLYTVESKKP | soluble |
| MNKKSSSMVNMPAPREPINQKIDTNNALVLNHNAIYEQRLAEITQSNTCDKAIVTVNPYGTAPLSLYLGVWMDEAAALEINVVDSEATTEEVRYQYDVHPGANLIPVCGMVSAVNNQITLRLASQIVGQYTVMTDALPPTDSANVSLGFPIISVSCPAQQASLMEEGLYFSTYFDRYNLAFDHNGIVRWYVSQEIPSYNFVRMDNGHFLATSQGINHCLNMYEFDIMGRVYTVYLLDNEFHHSILPIENNLAIAPSEYSNGRPDGYSTGKDGVSIINLSTGLEVAYYDMLYVMDYSRSPRPSGSAPGQDVSMDDWLHINQSYINEPNNLLICSGRHQSAIFGVNVDSGELRFIMANHEDWSDEFKQYLLTPVDDDGVPLYDLTSPGGIDAADKNFWTWGQHNIVEIPNDEPGILEFMVFDNGNYRSREDAKSLLPLDNFSRVVQFKINLNTMTVTRPYEYGKTEVGNRGYSSFVSAKHLLTNGHLVIHFGATTVDEFEHTITAQPGSSDLVDPDEGQQALGRLVLQEINKETKEVLFEAMVTSGYFKNEETNGTNYRYDISAFRVYKMPLFALEHHHHHH | soluble |
| GSHMLEVLTQKHKPAESQQQAAETEGSCNKKDQNECKSPCKWHNDAENKKCTLDKEEAKKVADETAKDGKTGNTNTTGSS | soluble |
| MAHHHHHHMKNVKVELDGKVYTILYEPKKVKFSDLDPLKIMFHSNHVKHSGNSVIRYLVKLTSRDISKMDYVVRHVDISYDRPLKYEDSYKIIGGITSYGSTSLRITLFGTNSSSKNGCSSNLGVKNILRNGACAHVDEAAKPEEGHEKASSSGEFKSEHSEVATRRDPNKKATKSDHHVEKLLAKYKEDNADAVIKLCRNKMNEIASQKHCINYFTAHYTLVRVNKEGAKEPIQEKYKNEFPPIEVEKLKELVSVFC | not soluble |
| MGSDKIHHHHHHMGEEIAISLKNVSKCFKRYSRPVDRLKEVLLPGKSRTDEFWALRDINIEIPKGQTVGIVGRNGSGKSTLLQIIVGTLTPSSGDVRVVGRVSALLELGSGFNPEFTGRQNVFFNGQLLGLSQKQIEDRFDDIVAFADIGDFIEQPVKTYSSGMYVRLAFSVAVNVDPEILIVDEALAVGDVVFQHRCMRRMRAMMDSGVTTLFVSHDSGAIKTLCNSAVMIHDGKIHTTGLPNTVIIEYLKLVTELELGLAQDITVNSQQQVNPVVDNAIQASDSPNFDIESPSSNFSKATRRGSGKARIESVKILNQLGHYAGESPIFAFNEEVTLIVNLKVYYTIKSCIVGFHVCDKNGNEVIGSNTLEENIKIDKLESGEEIEIKFKFNLPLRPSSYSLTVAGAESYESLSFDWIDNIMVFQILPPDTGKLIHALVHQPMVVKVNKKVLPTVVTPA | not soluble |
